{"source": "paper PMC4288179", "about": "“Synergic interplay of the La motif, RRM1 and the interdomain linker of LARP6 in the recognition of collagen mRNA expands the RNA binding repertoire of the La module”", "key": {"[1]": {"target": "T1, HsLARP6 La module (70-300) (Homo sapiens, UniProt Q9BRS8 70-300)", "T1 sequence": "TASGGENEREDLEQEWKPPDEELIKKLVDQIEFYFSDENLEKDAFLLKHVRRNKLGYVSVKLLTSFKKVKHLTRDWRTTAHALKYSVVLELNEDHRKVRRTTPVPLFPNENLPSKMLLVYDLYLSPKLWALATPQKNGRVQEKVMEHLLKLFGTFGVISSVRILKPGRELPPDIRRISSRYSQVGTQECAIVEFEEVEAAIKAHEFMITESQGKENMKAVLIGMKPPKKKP", "test": "ITC; 200 mM KCl; ITC: 20 mM Tris pH 7.25, 100 mM KCl, 5 mM MgCl2, 1 mM DTT, 298 K; protein titrated into RNA", "details": "protein: recombinant; tags: N-terminal His6, TEV-cleaved for initial ITC; stem-loop with internal bulge"}, "Interlinker chimera": {"target": "T2, Interlinker chimera (Homo sapiens, UniProt Q9BRS8 70-178+P05455:101-111+181-300, internal_change)", "T2 sequence": "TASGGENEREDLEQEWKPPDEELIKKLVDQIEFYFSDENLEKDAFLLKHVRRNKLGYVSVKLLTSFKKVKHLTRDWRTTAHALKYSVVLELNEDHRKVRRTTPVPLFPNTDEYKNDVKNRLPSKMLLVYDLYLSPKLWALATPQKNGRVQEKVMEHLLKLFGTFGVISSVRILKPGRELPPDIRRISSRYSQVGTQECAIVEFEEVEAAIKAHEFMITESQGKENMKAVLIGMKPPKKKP", "test": "ITC; text says 500-fold decrease; table gives about 14-fold; ITC: 20 mM Tris pH 7.25, 100 mM KCl, 5 mM MgCl2, 1 mM DTT, 298 K; protein titrated into RNA", "details": "protein: recombinant; tags: N-terminal His6 (TEV-cleavable); stem-loop with internal bulge"}, "HsLARP6(70-300) Y189A": {"target": "T3, HsLARP6(70-300) Y189A (Homo sapiens, UniProt Q9BRS8 70-300, Y189A)", "T3 sequence": "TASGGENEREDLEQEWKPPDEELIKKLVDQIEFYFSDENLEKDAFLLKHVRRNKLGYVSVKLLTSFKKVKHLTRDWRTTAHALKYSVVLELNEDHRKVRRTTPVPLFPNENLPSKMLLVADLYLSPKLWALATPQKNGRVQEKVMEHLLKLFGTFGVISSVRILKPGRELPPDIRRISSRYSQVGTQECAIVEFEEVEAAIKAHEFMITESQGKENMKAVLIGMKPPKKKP", "test": "ITC; ITC: 20 mM Tris pH 7.25, 100 mM KCl, 5 mM MgCl2, 1 mM DTT, 298 K; protein titrated into RNA", "details": "protein: recombinant; tags: N-terminal His6 (TEV-cleavable); stem-loop with internal bulge"}, "HsLARP6(70-300) W85A": {"target": "T4, HsLARP6(70-300) W85A (Homo sapiens, UniProt Q9BRS8 70-300, W85A)", "T4 sequence": "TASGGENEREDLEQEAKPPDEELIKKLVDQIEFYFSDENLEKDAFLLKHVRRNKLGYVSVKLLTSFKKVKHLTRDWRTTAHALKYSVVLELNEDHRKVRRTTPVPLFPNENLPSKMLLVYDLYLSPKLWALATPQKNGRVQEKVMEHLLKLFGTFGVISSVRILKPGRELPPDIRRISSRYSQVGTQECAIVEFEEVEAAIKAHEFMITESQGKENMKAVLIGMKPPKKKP", "test": "ITC; ITC: 20 mM Tris pH 7.25, 100 mM KCl, 5 mM MgCl2, 1 mM DTT, 298 K; protein titrated into RNA", "details": "protein: recombinant; tags: N-terminal His6 (TEV-cleavable); stem-loop with internal bulge"}, "HsLARP6 RRM1 (180-295)": {"target": "T5, HsLARP6 RRM1 (180-295) (Homo sapiens, UniProt Q9BRS8 180-295)", "T5 sequence": "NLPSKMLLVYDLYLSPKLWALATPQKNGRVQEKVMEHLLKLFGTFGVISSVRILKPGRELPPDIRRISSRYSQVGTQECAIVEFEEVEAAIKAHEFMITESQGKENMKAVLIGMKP", "test": "ITC; ITC: 20 mM Tris pH 7.25, 100 mM KCl, 5 mM MgCl2, 1 mM DTT, 298 K; protein titrated into RNA", "details": "protein: recombinant; tags: N-terminal His6 (TEV-cleavable); stem-loop with internal bulge"}, "HsLARP6(70-300) I260A": {"target": "T6, HsLARP6(70-300) I260A (Homo sapiens, UniProt Q9BRS8 70-300, I260A)", "T6 sequence": "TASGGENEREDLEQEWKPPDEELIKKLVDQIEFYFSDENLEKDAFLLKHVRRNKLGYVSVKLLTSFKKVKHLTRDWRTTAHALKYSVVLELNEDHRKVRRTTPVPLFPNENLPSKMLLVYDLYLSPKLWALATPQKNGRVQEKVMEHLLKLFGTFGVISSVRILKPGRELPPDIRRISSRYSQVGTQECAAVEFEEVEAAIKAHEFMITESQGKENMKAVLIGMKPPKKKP", "test": "ITC; ITC: 20 mM Tris pH 7.25, 100 mM KCl, 5 mM MgCl2, 1 mM DTT, 298 K; protein titrated into RNA", "details": "protein: recombinant; tags: N-terminal His6 (TEV-cleavable); stem-loop with internal bulge"}}}
{"binder": "CCACAAAGAGUCUACAUGUCUAGGGUCUAGACAUGUUCAGCUUUGUGG (structured_RNA)", "note": "[48 nt RNA (collagen alpha1(I) 5' UTR SL)]", "values": [{"measurement": "Kd", "setting": "[1]", "value": 50, "unit": "nM"}, {"measurement": "Kd", "setting": "Interlinker chimera", "value": 667, "unit": "nM"}, {"measurement": "Kd", "setting": "HsLARP6(70-300) Y189A", "value": 59, "unit": "nM"}, {"measurement": "Kd", "setting": "HsLARP6(70-300) W85A", "value": 22, "unit": "nM"}, {"measurement": "binding result", "setting": "HsLARP6 RRM1 (180-295)", "value": "no binding"}, {"measurement": "Kd", "setting": "HsLARP6(70-300) I260A", "value": 26, "unit": "nM"}]}
